According to article PMC9399903 (Nature structural & molecular biology, 2022):

Tests used:
[1] = molecular target: wild-type yeast core particle (CP, 20S proteasome) (S. cerevisiae (endogenous in yeast)) (UniProt P23639)
SEC = molecular target: the molecule itself; assay: SEC

Chain of wild-type yeast core particle (CP, 20S proteasome) (S. cerevisiae (endogenous in yeast)) (P23639 whole entry, looked up): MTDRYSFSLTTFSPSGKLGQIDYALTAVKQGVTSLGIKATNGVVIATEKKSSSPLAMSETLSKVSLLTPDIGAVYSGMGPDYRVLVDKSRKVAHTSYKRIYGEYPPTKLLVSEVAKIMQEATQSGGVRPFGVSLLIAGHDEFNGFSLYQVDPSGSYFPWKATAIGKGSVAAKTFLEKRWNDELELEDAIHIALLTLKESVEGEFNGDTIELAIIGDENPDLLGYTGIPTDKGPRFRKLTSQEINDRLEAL

inhibition of CP peptidase activity at 2-fold molar excess of Fub1 [1]: 50%
B1: Fub1 (S. cerevisiae PI31), endogenous untagged (natural protein, UniProt P25659 1-250, looked up)
chain: MIENKVELVAELVLESIGKTEVVSRHTEGTKSCQVSFRIKDSPSEKGSTSFLSELVVIQTLDDNDKYTVVIRHGTSITMACVVGYSDFKLPTELKWPLERESLPVEPDLKPIMTQLKRQTAGSADMPKFDDEYQAQARQNQGTAPLNPYPGLTVTEPSFANPAGGYADGDLYPVGTSHPDWSGGLPNPLGNPSSQGGMIFDPNRRPAPRREDMPPGWMPGSKYDEPFGPGSGGFGGSGSGGFGGSGSGFI
stoichiometry N (SEC): 2
